The target of test [1] is Chlorella sorokiniana Rubisco holoenzyme (CsRubisco) (Chlorella sorokiniana UTEX1230 (endogenous in Chlorella cells)) (UniProt W8SUA8). Briefly: SPR; Rubisco immobilised as bait, fragments as analyte (prey); Biacore T100/T200, 25 °C; analyte injected at 15 μl/min for 30 s, 360 s dissociation; fit of y = Bmax·x/(KD + x); apparent KD; triplicate.
Test [2] deals with Chlamydomonas reinhardtii Rubisco (CrRubisco) (Chlamydomonas reinhardtii (endogenous in Chlamydomonas cells)) (UniProt P00877). The description is as above.
Chain of Chlamydomonas reinhardtii Rubisco (CrRubisco) (Chlamydomonas reinhardtii (endogenous in Chlamydomonas cells)) (P08475 46-185 limits assumed, chain 2 of 2, other chains not shown): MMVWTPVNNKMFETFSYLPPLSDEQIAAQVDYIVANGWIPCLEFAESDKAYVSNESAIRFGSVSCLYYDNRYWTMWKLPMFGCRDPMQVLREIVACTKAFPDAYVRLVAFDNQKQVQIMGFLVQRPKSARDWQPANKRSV
For test [3], the target named is Chlorella sorokiniana Rubisco holoenzyme (CsRubisco) (Chlorella sorokiniana UTEX1230 (endogenous in Chlorella cells)) (UniProt W8SUA8). Put plainly: native gel or EMSA; native PAGE gel-shift assay; Rubisco and fragments mixed for 30 min at room temperature; 50 mM Tris-HCl pH 8.0, 50 mM NaCl (Fig. 3a); 4-20% gels, 4 h at 100 V, 4 °C. For orientation: Mobility shift assays separate free from complexed probe on a gel.

Test [4] shares this target. Briefly: cryo-EM structure; 0.5 μM CsRubisco and 16 μM α3–α4 in 200 mM sorbitol, 50 mM HEPES, 50 mM KOAc, 2 mM Mg(OAc)2, 1 mM CaCl2, pH 6.8; D4 map of the holoenzyme and C1 map after symmetry expansion.

“CsLinker α3 fragment (residues 142–207) (domain or fragment)”: the values for the Kd in test [1] and in test [2] were 103 µM and 108 µM, respectively.
In the case of “CsLinker α3–α4 fragment (residues 142–272) (domain or fragment)”, the K0.5 (half-occupancy) in test [3] amounted to 1.2 µM. This substance had a percent of the CsRbcL sites occupied in test [4] of 23%. In addition, the figures for the Kd in test [1] and in test [2] were 1.21 µM and 1.3 µM, respectively.

The record behind these values is publication PMC11570498.
